How the values were obtained:
[1] = system: bovine casein (Hammersten-grade) (Merck, Darmstadt, Germany)
[2] = target: bovine serum albumin (BSA) (Roth, Karlsruhe, Germany) (UniProt P02769)
[3] = system: cyanophycin (multi-L-arginyl-poly-[L-aspartic acid]), Cyanophycin Granule Polypeptide

Sequence of bovine serum albumin (BSA) (Roth, Karlsruhe, Germany) (P02769 25-607): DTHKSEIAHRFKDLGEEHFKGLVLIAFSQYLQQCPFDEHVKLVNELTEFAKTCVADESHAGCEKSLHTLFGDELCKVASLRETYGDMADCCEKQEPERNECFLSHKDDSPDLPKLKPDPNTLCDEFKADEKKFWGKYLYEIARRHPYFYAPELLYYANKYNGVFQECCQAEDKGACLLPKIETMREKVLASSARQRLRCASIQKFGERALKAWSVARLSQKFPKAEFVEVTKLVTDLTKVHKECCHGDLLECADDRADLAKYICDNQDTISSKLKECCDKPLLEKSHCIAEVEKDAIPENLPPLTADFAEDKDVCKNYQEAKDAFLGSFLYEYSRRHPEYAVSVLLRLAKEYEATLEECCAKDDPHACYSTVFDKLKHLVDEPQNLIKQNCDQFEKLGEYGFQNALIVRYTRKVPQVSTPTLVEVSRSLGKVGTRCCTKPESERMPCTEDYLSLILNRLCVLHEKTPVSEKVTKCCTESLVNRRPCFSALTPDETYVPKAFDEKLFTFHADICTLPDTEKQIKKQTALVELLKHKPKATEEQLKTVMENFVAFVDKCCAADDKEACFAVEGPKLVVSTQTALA

Substance: extracellular cyanophycinase (CGPase) CphEal from Pseudomonas alcaligenes strain DIP1
- degradation (substrate specificity test) [1]: Bovine casein and poly(aspartic acid) were minimally affected by the enzymatic activity of the purified CphEal
- degradation (in comparison to CGP) [2]: also BSA was partially degraded (65% in comparison to CGP)
- degradation activity (substrate specificity test) [3]: showed the highest degradation activity on CGP
